Measurements reported in the supplement of paper PMC12455559.
± gives the standard deviation of the averaged measurements.

Tests used:
[1] = melting temperature (DSF); higher = more thermostable
Procedure, shortened: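 Values are melting temperatures from differential scanning fluorimetry. Candidate enzymes were expressed in E. coli C41(DE3), purified on nickel beads and freed by SUMO protease cleavage. In sealed PCR plates on a Bio-Rad CFX96, 45 μL enzyme (0 to 0.3 mg/mL) was combined with 5 μL 5X Sypro Orange. Fluorescence was recorded from 25 °C for 250 cycles, rising 0.3 °C per cycle at a ramp of 0.3 °C/s.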

[2] = purified protein yield per well (BCA); higher = higher soluble expression
Procedure, shortened: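 Candidate enzymes were made in 2 mL autoinduction cultures of E. coli C41(DE3) with 100 µg/mL kanamycin, at 37 °C for 2 h and then 18 °C for 40 h, and purified with Ni-charged magnetic beads and SUMO protease cleavage. The Pierce Rapid Gold BCA kit gave purified protein yield per well. Values lower than 25 ug (0.1 mg/mL) are below the detection threshold.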

[3] = PET hydrolysis, aromatic products released after 48 h (umol product/mg enzyme); higher = more PET depolymerization activity
Procedure, shortened: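 Hydrolysis activity toward PET is reported as supernatant aromatic product per mg enzyme. To measure it, 5 μg (50 μL) of tagless enzyme was incubated with 3.5 mg amorphous PET film or crystalline PET powder in 450 μL buffer for 48 h at 40 or 60 °C in sealed, unshaken plates. The product was quantified by absorbance at 260 and 280 nm relative to buffer blanks.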

[4] = substrate: cryPow, 40 °C, pH 5.5
[5] = substrate: cryPow, 40 °C, pH 6.5
[6] = substrate: cryPow, 40 °C, pH 7.5
[7] = substrate: cryPow, 40 °C, pH 8.5
[8] = substrate: cryPow, 40 °C, pH 4.5
[9] = substrate: cryPow, 60 °C, pH 4.5
[10] = substrate: cryPow, 60 °C, pH 5.5
[11] = substrate: cryPow, 60 °C, pH 6.5
[12] = substrate: cryPow, 60 °C, pH 7.5
[13] = substrate: aFilm, 40 °C, pH 5.5
[14] = substrate: aFilm, 40 °C, pH 6.5
[15] = substrate: aFilm, 40 °C, pH 7.5
[16] = substrate: aFilm, 40 °C, pH 8.5
[17] = substrate: aFilm, 60 °C, pH 5.5
[18] = substrate: aFilm, 60 °C, pH 6.5
[19] = substrate: aFilm, 60 °C, pH 7.5
[20] = substrate: aFilm, 60 °C, pH 8.5
[21] = substrate: cryPow, 60 °C, pH 8.5

Sequence	melting temperature [1] [C]	purified protein yield per well [2] [µg]	PET hydrolysis [3, 4]	PET hydrolysis [3, 5]	PET hydrolysis [3, 6]	PET hydrolysis [3, 7]	PET hydrolysis [3, 8]	PET hydrolysis [3, 9]	PET hydrolysis [3, 10]	PET hydrolysis [3, 11]	PET hydrolysis [3, 12]	PET hydrolysis [3, 13]	PET hydrolysis [3, 14]	PET hydrolysis [3, 15]	PET hydrolysis [3, 16]	PET hydrolysis [3, 17]	PET hydrolysis [3, 18]	PET hydrolysis [3, 19]	PET hydrolysis [3, 20]	PET hydrolysis [3, 21]
AENPHQRGPNPTVAALEAAAGPFAVAKVSVPGGHGFGGGTITYPTDTSQGTFGAVAVSPGFIESEGAIAWFGPRLASHGFVVITISTNGLFDQPDARGAQLLAALDYVTKSSAVRDRVDPARLAVMGHSMGGGGALYATAQRPALKASIPLLAWSNTKSWGSVRVPTMVIGAENDFIASVGSHSEPFYQSLGGEKAYLEMNDADHFVTNSPTPTVGKLTVSWLKRFMDNDTRYDQFLCPAPPVGGPISEYRDTCPYI [DP017]	49.6	30	4	11	13	6	–	–	–	–	–	–	–	–	–	–	–	–	–	–
AENPYERGPAPTTASIEALRGPFATAETTVSSLSVRGFGGGTIHYPTSTAEGTFGAVAVAPGYTASQSSLSWLGPRLASQGFVVFVIDTNSRYDQPASRGDQLLAALDYLTTSSSVRGRIDASRLGVMGHSMGGGGALEATKDRPSLQASIPLTPWNTTKTWSTVRTPTLVVGAEDDSVAPVRTHAEPFYEGLPSTLDKAYLELAGASHFAPNSSNTTIAKYSIAWLKRFVDDDTRYEQFLCPAPRGTAISEYRDTCPHP [TEP110]	47.2	48.9	< 3	< 3	< 3	–	< 3	–	–	–	–	–	–	–	–	–	–	–	–	–
AENPYQRGPDPTLAALAASAGPYPIMETVVGSAEVTNFGGASIYYPAGTADGTFGGVAVTPGFLGPRSTMEWVARRVASHGFVVINIDTLERNDTPPLRARQMLAALDYLTGASAVRDRVDPTRLAVMGHSMGGGGSLQASRQRPQLKAAVPLTPWSNDKDFSADVVPTLIIGAELDDTAPVAEHAEPFFESIAAARKAYLELNDAEHRAPIRTNETIGTYSVAWLKRFVDDDTRYEQFLCPPPAPSAAIEEFRGTCPSS [TEP106]	41.5	87.7	< 3	< 3	< 3	–	< 3	< 3	< 3	< 3	< 3	–	–	–	–	–	–	–	–	–
AESPYQRGPDPTRESVAASRGTFATAEVSVPAGNGFGGGVIYYPTDTSQGTFGGVAIVPGYTATWAAEGAWMGHWLASFGFVVIGIDTINRNDWDTARGTQLLAALDYLTQRSSVRNRVDANRLAVMGHSMGGGGAMHAALQRPSLKAAIGLAPFSPSQNLTNMRVPTLLVAGQNDTTTTPTSILNLYNGIPATTEKAYLELTGAGHGFPTSANSVMTRKVIPWLKIFVDHDTRYHQFLCPLLDWTGITAYRSSCPLNPPGGPTGSTFSLVGADSGKCVDVPGASRTNGTGLITYTCNGASNQRWTQTAANELRIYDNSKCMEAGTSAGSRAVITSCTGGNGQKWTFNANGTITHAQSGLCLYVNGGSTANQAAVIVWTCHGGSNQVWTRQP [TEP163]	73	148	8	8	5	–	< 3	< 3	< 3	3	< 3	–	–	–	–	–	–	–	–	–
AGFEKGPDPTTASVTADRGSYDIAQVDVPKGSGTGFADGTIYYPKSTADGTFGAVAVIPGFLEPKSAIDWYGPRLASQGFVVMTLDTTSVFDTPDSRGGQLLAALDYLTSKSTVKDRIDPNRLAVVGHSMGGGGTLSAAANRPNLKAAVALAPWHVSAPLTSVKTPTMIFGSDNDFIAPDGTFAKPFYDGISNAPEKAYVRLKNAGHMAYVFPDKRIAEYTLSWLKRYVDDDTRYTQFLCPGPTNESTIAAYKSTCPM [DP093]	46.6	225	4	1.5 ± 2.1	< 3	< 3	–	–	< 3	< 3	< 3	< 3	< 3	< 3	< 3	< 3	< 3	< 3	< 3	< 3
AGFERGPDPSTSTLDAARGPFAVAEERVYSWRASGFGGGDIYYPTTTSEGTFGVVAVAPGYTAGRSSMAWLASRIASHGFVVINIDTLTRSDQPASRGRQLLAALDHVTSSSGVRDRVDASRQAVVGHSMGGGGALEAASSRPALQAAVPLTPWNLTKRWSSLQVPTFIVGAENDSVASVRTHAEPFYESLPAALPKAYLELNNASHFAPNTTNSTIGRYTVAWLKRYVDDDLRYSQFLCPPPPPSSAIEEFRATC [DP087]	44.2	208	< 3	< 3	< 3	< 3	–	–	< 3	< 3	< 3	< 3	< 3	< 3	< 3	< 3	< 3	< 3	< 3	< 3
